Reference: the supplement of paper PMC7877785
± gives the uncertainty stated by the source.

Test: self-splicing fitness, log relative to wild type (ln ratio); higher = more splicing; Tetrahymena group I intron in knt gene, E. coli kanamycin selection, DiMSum; sequences stand for … in CUCUCU…GGAGGGAAAAGUUAUCAGGCAUGCACCUGGUAGCUAGUCUUUAAACCAAUAGAUUGCAUCGGUUUAAAAGGCAAGACCGUCAAAUUGCGGGAAAGGGGUCAACAGCCGUUCAGUACCAAGUCUCAGGGGAAACUUUGAGAUGGCCUUGCAAAGGGUAUGGUAAUAAGCUGACGGACAUGGUCCUAACCACGCAGCCAAGUCCUAAGUCAACAGAUCUUCUGUUGAUAUGGAUGCAGUUCACAGACUAAAUGUCGGUCGGGGAAGAUGUAUUCUUCUCAUAAGAUAUAGUCGGACCUCUCCUUAAUGGGAGCUAGCGGAUGAAGUGAUGCAACACUGGAGCCGCUGGGAACUAAUUUGUAUGCGAAAGUAUAUUGAUUAGUUUUGGAGUACUCGUGGUCG
In short: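 Library with all eight P1ex-region intron nucleotides randomised, intron inside the knt kanamycin-resistance gene on pET-22b(+), in E. coli BL21(DE3). Cells grew overnight at 37°C or 30°C on LB agar with or without 25 μg/mL kanamycin (plus 100 μg/mL carbenicillin, 50 μM IPTG, 0.2% rhamnose), in six replicate transformations. Pooled colonies were amplicon-sequenced on Illumina HiSeq 2500. DiMSum fitness is the error-weighted combination of wild-type-normalised replicate fold changes, kanamycin versus none.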

Row | Sequence | self-splicing fitness (ln) (30 °C) | self-splicing fitness (ln) (37 °C)
1 | GGGCAGCAAUAUUACGGUGC | -2.21 ± 0.13 | -1.8 ± 0.089
2 | CAUAAGCAAUAUUACGGCAU | -4.06 ± 0.31 | -1.15 ± 0.2
3 | UAAGAGCAAUAUUACGAGAU | -3.76 ± 0.33 | -2.32 ± 0.31
4 | CUAUAGCAAUAUUACGAGCG | 0.114 ± 0.086 | 0.29 ± 0.11
5 | UUGUAGCAAUAUUACGCACU | 0.662 ± 0.21 | 0.253 ± 0.19
6 | GUCGAGCAAUAUUACGUCUU | -2 ± 0.1 | -1.39 ± 0.09
7 | ACUUAGCAAUAUUACGGCUA | -2.6 ± 0.2 | -0.214 ± 0.1
8 | CUAUAGCAAUAUUACGGCGA | – | -0.914 ± 0.47
9 | GGGUAGCAAUAUUACGAAAC | -1.26 ± 0.32 | -0.11 ± 0.4
10 | UUUAAGCAAUAUUACGUGGU | -2.88 ± 0.16 | -2.62 ± 0.21
11 | ACCGAGCAAUAUUACGGCGA | -0.182 ± 0.086 | -0.768 ± 0.12
12 | UACUAGCAAUAUUACGUUGC | -2.38 ± 0.26 | -1.85 ± 0.28
13 | GCGUAGCAAUAUUACGCUCA | – | -0.161 ± 0.23
14 | AUCGAGCAAUAUUACGAAAU | -2.63 ± 0.37 | -1.87 ± 0.46
15 | AUACAGCAAUAUUACGCUUC | -3.06 ± 0.17 | -3.25 ± 0.24
16 | GGUGAGCAAUAUUACGGUCU | -0.893 ± 0.14 | -0.768 ± 0.2
17 | GCCUAGCAAUAUUACGAUAC | -2.39 ± 0.11 | -0.543 ± 0.1
18 | CACGAGCAAUAUUACGACCU | -2.18 ± 0.17 | -2.27 ± 0.27
19 | CACGAGCAAUAUUACGGAAU | -2.85 ± 0.25 | -1.67 ± 0.23
20 | UAUAAGCAAUAUUACGUUUC | -3.5 ± 0.38 | -2.43 ± 0.35
21 | CCUGAGCAAUAUUACGGAUA | -3.44 ± 0.32 | -1.92 ± 0.23
22 | GUAUAGCAAUAUUACGCAAA | -3.07 ± 0.29 | -1.7 ± 0.25
23 | ACCAAGCAAUAUUACGACUA | -0.894 ± 0.099 | -0.585 ± 0.093
24 | UAUUAGCAAUAUUACGCCUC | – | -3.1 ± 0.48
25 | GGGUAGCAAUAUUACGUUAA | -1.72 ± 0.16 | -0.668 ± 0.13
26 | CGUAAGCAAUAUUACGCCAG | -2.15 ± 0.15 | -0.931 ± 0.18

Row | Sequence | self-splicing fitness (ln) (30 °C) | self-splicing fitness (ln) (37 °C)
27 | GUAUAGCAAUAUUACGUUGC | -2.83 ± 0.26 | –
28 | CUCAAGCAAUAUUACGUGUC | -3.37 ± 0.11 | -1.65 ± 0.1
29 | UCAGAGCAAUAUUACGAAGC | -2.55 ± 0.44 | –
30 | AUGUAGCAAUAUUACGGCAC | -1.59 ± 0.18 | 0.329 ± 0.18
31 | AUCCAGCAAUAUUACGUACU | -1.56 ± 0.14 | -0.416 ± 0.15
32 | GCGAAGCAAUAUUACGAGUU | -3.19 ± 0.2 | -2.16 ± 0.28
33 | UCCGAGCAAUAUUACGUACG | -3.62 ± 0.47 | -2.34 ± 0.45
34 | UGGGAGCAAUAUUACGCGGG | -3.85 ± 0.22 | -2.89 ± 0.19
35 | AGACAGCAAUAUUACGAAAA | – | -1.44 ± 0.29
36 | UCUCAGCAAUAUUACGUGGG | -3.43 ± 0.25 | -2.48 ± 0.21
37 | ACACAGCAAUAUUACGCAUA | -2.45 ± 0.08 | -1.49 ± 0.072
38 | CGACAGCAAUAUUACGUUGA | -3.63 ± 0.15 | -1.85 ± 0.1
39 | CCGAAGCAAUAUUACGACUU | -2.97 ± 0.22 | -3.91 ± 0.39
40 | AGGGAGCAAUAUUACGAGAC | -3.09 ± 0.4 | -2.77 ± 0.36
41 | UCCAAGCAAUAUUACGAAAC | -3.13 ± 0.22 | -2.95 ± 0.35
42 | CAAGAGCAAUAUUACGAGCA | -2.85 ± 0.28 | -2.63 ± 0.38
43 | AACAAGCAAUAUUACGGAAG | -3.98 ± 0.18 | -2.74 ± 0.15
44 | UUUGAGCAAUAUUACGACAU | -3.673 ± 0.034 | -2.43 ± 0.043
45 | GUUAAGCAAUAUUACGGUUG | -3.12 ± 0.28 | -1.22 ± 0.24
46 | GGGAAGCAAUAUUACGGAUC | -0.0316 ± 0.077 | -0.684 ± 0.088
47 | UUGCAGCAAUAUUACGACAA | -0.619 ± 0.087 | 0.212 ± 0.1
48 | GAAGAGCAAUAUUACGGUAU | -3.7 ± 0.23 | -2.46 ± 0.31
49 | AGAAAGCAAUAUUACGAACU | -0.0259 ± 0.096 | 0.00874 ± 0.12
50 | AUAAAGCAAUAUUACGGCUA | 0.756 ± 0.14 | -0.15 ± 0.14
51 | GUACAGCAAUAUUACGGAGA | -3.87 ± 0.35 | -2.81 ± 0.21
52 | UACUAGCAAUAUUACGCCGA | -1.25 ± 0.19 | -0.403 ± 0.17

Row | Sequence | self-splicing fitness (ln) (30 °C) | self-splicing fitness (ln) (37 °C)
53 | UUAAAGCAAUAUUACGCCGU | -0.966 ± 0.18 | -0.394 ± 0.25
54 | CAUUAGCAAUAUUACGCCUA | – | -1.73 ± 0.31
55 | AAUAAGCAAUAUUACGGGGA | -3.01 ± 0.21 | -1.42 ± 0.16
56 | GGUGAGCAAUAUUACGGCCU | -2.79 ± 0.26 | -2.96 ± 0.43
57 | CUUCAGCAAUAUUACGGGUU | -4.12 ± 0.24 | -2.49 ± 0.23
58 | AUCAAGCAAUAUUACGCCUA | -0.765 ± 0.11 | -0.646 ± 0.095
59 | AGCAAGCAAUAUUACGAUCC | -1.8 ± 0.18 | 1.31 ± 0.25
60 | CUUCAGCAAUAUUACGCAUU | -3.11 ± 0.19 | -2.28 ± 0.2
61 | CUUAAGCAAUAUUACGCGUG | -2.99 ± 0.15 | -1.26 ± 0.12
62 | UAGUAGCAAUAUUACGGAGC | -2.84 ± 0.35 | –
63 | GAGAAGCAAUAUUACGUUCA | -0.919 ± 0.2 | -0.374 ± 0.22
64 | UGGCAGCAAUAUUACGCCGU | -2.63 ± 0.18 | -2.02 ± 0.17
65 | UGCAAGCAAUAUUACGUCCG | 0.463 ± 0.1 | 0.55 ± 0.12
66 | AAGAAGCAAUAUUACGCUCU | -3.54 ± 0.24 | -1.37 ± 0.18
67 | CCUUAGCAAUAUUACGACUC | -3.05 ± 0.15 | -2.49 ± 0.2
68 | UUCGAGCAAUAUUACGAUAC | -3.34 ± 0.23 | -3.26 ± 0.26
69 | CGAAAGCAAUAUUACGCGGG | -2.77 ± 0.18 | -1.88 ± 0.19
70 | UCAGAGCAAUAUUACGGGCA | -3.11 ± 0.29 | -1.77 ± 0.17
71 | ACUGAGCAAUAUUACGUUUA | -2.52 ± 0.2 | -3.08 ± 0.24
72 | ACUCAGCAAUAUUACGUUCC | -2.15 ± 0.22 | -0.606 ± 0.2
73 | CCUCAGCAAUAUUACGAACA | -4.3 ± 0.42 | -1.46 ± 0.41
74 | AUCUAGCAAUAUUACGAAUG | -2.37 ± 0.18 | -0.667 ± 0.19
75 | GACUAGCAAUAUUACGGCCG | -0.632 ± 0.13 | -0.578 ± 0.16
76 | UGGUAGCAAUAUUACGCUCC | -2.54 ± 0.24 | -2.44 ± 0.21
77 | CAAGAGCAAUAUUACGUGUC | -4.19 ± 0.2 | -3.11 ± 0.2
